Experimental data: patent publication US20250250350A1 (ARSENAL BIOSCIENCES, published 2025)

Assays:
SLC2A9 on THP-1 cells = target: T1, SLC2A9 on THP-1 cells (UniProt Q9NRM0 1-540, limits assumed); test: 24 h co-culture of MSLN CAR (LG1 CAR) T cells with THP-1 (SLC2A9+) target cells, end-point luciferase cytotoxicity, RNP-only T cells as control
T1 construct: whole, on cells; also called SLC2A9+ cells (THP-1 cells)
T1 sequence (looked up): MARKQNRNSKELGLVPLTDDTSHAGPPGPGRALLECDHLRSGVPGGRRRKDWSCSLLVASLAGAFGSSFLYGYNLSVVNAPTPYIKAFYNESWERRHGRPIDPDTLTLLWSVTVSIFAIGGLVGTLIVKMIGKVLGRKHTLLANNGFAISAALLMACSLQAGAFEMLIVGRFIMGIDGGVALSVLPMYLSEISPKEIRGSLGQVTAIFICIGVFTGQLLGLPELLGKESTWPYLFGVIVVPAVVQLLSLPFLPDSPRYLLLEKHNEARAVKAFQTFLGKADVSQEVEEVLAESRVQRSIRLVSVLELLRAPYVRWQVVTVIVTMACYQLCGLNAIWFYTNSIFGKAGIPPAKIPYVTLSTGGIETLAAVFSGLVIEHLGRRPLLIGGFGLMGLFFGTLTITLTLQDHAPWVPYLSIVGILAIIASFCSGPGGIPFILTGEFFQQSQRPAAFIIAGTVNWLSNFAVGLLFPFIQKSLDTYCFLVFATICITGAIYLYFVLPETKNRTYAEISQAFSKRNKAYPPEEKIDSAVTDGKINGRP
Excerpt: (§1) T cells from four donors were engineered to constitutively express the MSLN CAR (LG1 CAR) using the manufacturing process described in Example 1 and were frozen and cryobanked at Day 9 after initial activation. […] On the day of the assay, MSLN CAR and RNP only control T cells were counted and resuspended in medium without IL-7 and IL-15 and serially diluted and added to 96-well flat-bottom, white-walled assay plates. The serial dilution of T cells results in the following co-culture effector:target (E:T) ratios once 1e4 THP-1 or K562 (negative control), K562-MSLN (positive control) and K562-GP2 target cells were added/well: 3:1, 1:1, 1:3 in technical duplicates. Prepared plates with T cells and target cells were incubated at 37° C. for 24 hours with a breathable membrane on each plate. Cytotoxicity at the end of the 24 hour co-culture was measured using an end-point luciferase assay.

GP2 on K562-GP2 cells = target: T2, GP2 on K562-GP2 cells (UniProt P55259 29-512, limits assumed); test: 24 h co-culture of MSLN CAR (LG1 CAR) T cells with K562-GP2 target cells, end-point luciferase cytotoxicity, RNP-only T cells as control
T2 construct: whole, on cells
T2 sequence (P55259 29-512 limits assumed): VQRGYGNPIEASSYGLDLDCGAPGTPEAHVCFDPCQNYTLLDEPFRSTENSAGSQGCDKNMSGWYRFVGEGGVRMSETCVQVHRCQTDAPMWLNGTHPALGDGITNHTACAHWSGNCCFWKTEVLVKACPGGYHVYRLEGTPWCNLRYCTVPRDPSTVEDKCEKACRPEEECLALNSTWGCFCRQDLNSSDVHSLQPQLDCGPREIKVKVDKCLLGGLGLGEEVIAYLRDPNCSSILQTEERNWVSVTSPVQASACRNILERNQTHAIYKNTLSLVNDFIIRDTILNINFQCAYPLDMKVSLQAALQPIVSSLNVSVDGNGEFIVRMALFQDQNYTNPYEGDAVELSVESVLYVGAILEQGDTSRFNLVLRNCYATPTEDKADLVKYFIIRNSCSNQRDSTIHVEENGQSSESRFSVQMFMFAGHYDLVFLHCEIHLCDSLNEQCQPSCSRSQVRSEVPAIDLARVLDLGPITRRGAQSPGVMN
Excerpt: as §1

ALPG-AF647 = target: T3, ALPG-AF647 (human, UniProt P10696, AF647 fluorophore label, site not given); test: flow cytometry, primary T cells with constitutive CAR and no PrimeR, stained with ALPG-AF647 and MSLN-Bio / streptavidin-PE; reagent concentration not given
T3 construct: soluble labelled staining reagent; Same protein as m5, here as a soluble staining reagent
T3 sequence (P10696 20-503 limits assumed): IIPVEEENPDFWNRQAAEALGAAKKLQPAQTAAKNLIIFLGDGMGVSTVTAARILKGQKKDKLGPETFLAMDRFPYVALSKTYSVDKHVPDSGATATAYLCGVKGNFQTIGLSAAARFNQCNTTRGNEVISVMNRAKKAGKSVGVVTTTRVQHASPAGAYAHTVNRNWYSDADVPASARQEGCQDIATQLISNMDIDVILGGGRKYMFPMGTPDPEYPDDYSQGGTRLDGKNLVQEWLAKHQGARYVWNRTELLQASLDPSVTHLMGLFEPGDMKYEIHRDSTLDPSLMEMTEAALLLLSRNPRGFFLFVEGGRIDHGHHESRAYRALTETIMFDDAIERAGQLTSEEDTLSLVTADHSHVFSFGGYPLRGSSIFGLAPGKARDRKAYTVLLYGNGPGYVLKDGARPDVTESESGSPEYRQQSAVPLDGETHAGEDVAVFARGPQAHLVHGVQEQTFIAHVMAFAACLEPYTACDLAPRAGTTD

binding result (ALPG-AF647): no binding
B1: MSLN CAR (LG1 CAR) (other)
chain: QLQLQESGPGLVKPSETLSLTCTVSGGSISNSYYWGWIRQPPGKGLEWIGSIYHSGNTYYNPSLKSRVTISVDTSKNQFSLKLSSVTAADTAVYYCVTQDGVGATTTEEYWGQGTLVTVSSAAATTTPAPRPPTPAPTIASQPLSLRPEACRPAAGGAVHTRGLDFACDIYIWAPLAGTCGVLLLSLVITLYCKRGRKKLLYIFKQPFMRPVQTTQEEDGCSCRFPEEEEGGCELRVKFSRSADAPAYQQGQNQLYNELNLGRREEYDVLDKRRGRDPEMGGKPRRKNPQEGLYNELQKDKMAEAYSEIGMKGERRRGKGHDGLYQGLSTATKDTYDALHMQALPPR
notes: Chimeric antigen receptor on engineered primary human T cells; also called MSLN LG1 CAR
binding result (SLC2A9 on THP-1 cells): no binding (tested: E:T 3:1) | binding result (GP2 on K562-GP2 cells): no binding (tested: E:T 3:1)
